The text below walks through data of PMC4303546 (Cell reports, 2014).

This experiment has as its target GATOR2 purified from HEK293T cells (UniProt Q9NXC5 1-875; Q6PJI9 1-974; Q96S15 1-790; Q96EE3 1-360; P55735 1-322). The experiment is described as follows: pull-down.

B1: GST-Sesn2 (natural protein, UniProt P58004 1-480, looked up)
chain: MIVADSECRAELKDYLRFAPGGVGDSGPGEEQRESRARRGPRGPSAFIPVEEVLREGAESLEQHLGLEALMSSGRVDNLAVVMGLHPDYFTSFWRLHYLLLHTDGPLASSWRHYIAIMAAARHQCSYLVGSHMAEFLQTGGDPEWLLGLHRAPEKLRKLSEINKLLAHRPWLITKEHIQALLKTGEHTWSLAELIQALVLLTHCHSLSSFVFGCGILPEGDADGSPAPQAPTPPSEQSSPPSRDPLNNSGGFESARDVEALMERMQQLQESLLRDEGTSQEEMESRFELEKSESLLVTPSADILEPSPHPDMLCFVEDPTFGYEDFTRRGAQAPPTFRAQDYTWEDHGYSLIQRLYPEGGQLLDEKFQAAYSLTYNTIAMHSGVDTSVLRRAIWNYIHCVFGIRYDDYDYGEVNQLLERNLKVYIKTVACYPEKTTRRMYNLFWRHFRHSEKVHVNLLLLEARMQAALLYALRAITRYMT
On to B1, for which the binding result is reported as “binds”.
